This is an account of results in the supplement of paper PMC9112550, “Optimization of the antimicrobial peptide Bac7 by deep mutational scanning” (BMC Biology, 2022).
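Also: peptides expressed intracellularly from a pBAD plasmid library in pooled LB shake-flask culture, induced with 0.3% L-arabinose, DNA abundance read by NGS, three biological replicates, DESeq2 with apeglm shrinkage.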

For the series, the system named is Escherichia coli TOP10. Briefly: shrunken log2 fold change of peptide-encoding DNA abundance (4.5 h post-induction vs induction); higher = less antimicrobial activity (less host growth inhibition). To be noted: time post-induction: 4.5 h; library: site-saturation at positions 5, 18, 19, 20.
In the case of RRIRPRPPRLPRPRPRPGQFPRP, the “shrunken log2 fold change” value is -0.0723.
RRIRVRPPRLPRPRPRPRYRPRP: the “shrunken log2 fold change” value is -0.0212.
RRIRHRPPRLPRPRPRPAATPRP: the “shrunken log2 fold change” value amounted to 0.292.
In the case of RRIRLRPPRLPRPRPRPFYKPRP, the “shrunken log2 fold change” value was -0.349.
Turning to RRIRMRPPRLPRPRPRPEYCPRP, the “shrunken log2 fold change” value was determined as 0.0929.
For the sequence RRIRARPPRLPRPRPRPPRMPRP, the “shrunken log2 fold change” value was 0.949.
In the case of RRIRARPPRLPRPRPRPYRNPRP, the “shrunken log2 fold change” value is -0.222.
The value for RRIRIRPPRLPRPRPRPTMWPRP was -0.0599; that for RRIRYRPPRLPRPRPRPALHPRP was 0.12; that for RRIRPRPPRLPRPRPRPIVAPRP was 0.133.
Take RRIRYRPPRLPRPRPRPTAPPRP: the “shrunken log2 fold change” value is -0.25.
Consider RRIRHRPPRLPRPRPRPNKAPRP, for which the “shrunken log2 fold change” value stood at 0.147.
For RRIRPRPPRLPRPRPRPFQDPRP, the “shrunken log2 fold change” value is -0.0806.
For RRIRYRPPRLPRPRPRPCIDPRP, the “shrunken log2 fold change” value is -0.00448.
Take RRIRWRPPRLPRPRPRPYSCPRP: the “shrunken log2 fold change” value was -0.705.
Consider RRIRRRPPRLPRPRPRPPLKPRP, for which the “shrunken log2 fold change” value was 0.302.
RRIRVRPPRLPRPRPRPYDLPRP: the “shrunken log2 fold change” value is -0.121.
Take RRIRWRPPRLPRPRPRPHQGPRP: the “shrunken log2 fold change” value was 0.0993.
As to RRIRCRPPRLPRPRPRPADTPRP, the “shrunken log2 fold change” value is -0.0286.
In the case of RRIRNRPPRLPRPRPRPRMTPRP, the “shrunken log2 fold change” value amounted to 0.259.
For the sequence RRIRDRPPRLPRPRPRPRERPRP, the “shrunken log2 fold change” value was found to be 0.352.
With RRIRDRPPRLPRPRPRPYNNPRP, the “shrunken log2 fold change” value was -0.489.
Turning to RRIRFRPPRLPRPRPRPMVCPRP, the “shrunken log2 fold change” value was -0.0374.
The value for RRIRPRPPRLPRPRPRPSKTPRP was 0.0619; that for RRIRERPPRLPRPRPRPPEFPRP was 0.127; that for RRIRHRPPRLPRPRPRPGLLPRP was -0.0335.
RRIRKRPPRLPRPRPRPTDKPRP: the “shrunken log2 fold change” value came to 0.208.
In the case of RRIRGRPPRLPRPRPRPCRKPRP it was -0.079.
RRIRWRPPRLPRPRPRPSMQPRP: the “shrunken log2 fold change” value is -0.0561.
On to RRIRDRPPRLPRPRPRPSNAPRP, for which the “shrunken log2 fold change” value was -0.184.
In the case of RRIRTRPPRLPRPRPRPKRCPRP, the “shrunken log2 fold change” value came to 0.0203.
As for RRIRMRPPRLPRPRPRPQLRPRP, the “shrunken log2 fold change” value was 0.357.
Regarding RRIRGRPPRLPRPRPRPAIQPRP, the “shrunken log2 fold change” value came to 0.438.
As for RRIRQRPPRLPRPRPRPYAQPRP, the “shrunken log2 fold change” value was -0.214.
In the case of RRIRNRPPRLPRPRPRPERHPRP it was 0.204; in that of RRIRFRPPRLPRPRPRPCLYPRP, -0.881.
For RRIRNRPPRLPRPRPRPCVHPRP, the “shrunken log2 fold change” value was -0.0018.
In the case of RRIRARPPRLPRPRPRPKDFPRP it was -0.0146; in that of RRIRCRPPRLPRPRPRPFHLPRP, -1.11.
Take RRIRLRPPRLPRPRPRPCYTPRP: the “shrunken log2 fold change” value was -0.525.
Consider RRIRDRPPRLPRPRPRPQRWPRP, for which the “shrunken log2 fold change” value was determined as 0.287.
Regarding RRIRERPPRLPRPRPRPFRMPRP, the “shrunken log2 fold change” value is -0.3.
In the case of RRIRTRPPRLPRPRPRPAPSPRP, the “shrunken log2 fold change” value worked out at 0.231.
In the case of RRIRLRPPRLPRPRPRPCRVPRP it was -0.141.
On to RRIRNRPPRLPRPRPRPIGQPRP, for which the “shrunken log2 fold change” value was -0.0958.
In the case of RRIRIRPPRLPRPRPRPYWYPRP it was -0.0124; in that of RRIRNRPPRLPRPRPRPNNAPRP, 0.0167.
Turning to RRIRCRPPRLPRPRPRPYNIPRP, the “shrunken log2 fold change” value was -1.27.
For the sequence RRIRARPPRLPRPRPRPWLVPRP, the “shrunken log2 fold change” value worked out at 0.0219.
For RRIRYRPPRLPRPRPRPFNEPRP, the “shrunken log2 fold change” value is -1.01.
On to RRIRLRPPRLPRPRPRPWHLPRP, for which the “shrunken log2 fold change” value is -0.28.
Turning to RRIRNRPPRLPRPRPRPDPTPRP, the “shrunken log2 fold change” value turned out to be 0.0817.
For the sequence RRIRFRPPRLPRPRPRPRTSPRP, the “shrunken log2 fold change” value stood at 0.223.
On to RRIRSRPPRLPRPRPRPVTAPRP, for which the “shrunken log2 fold change” value was -0.0769.
As for RRIRTRPPRLPRPRPRPRLAPRP, the “shrunken log2 fold change” value was 0.453.
In the case of RRIRWRPPRLPRPRPRPKNDPRP it was 0.0313.
As for RRIRPRPPRLPRPRPRPTRQPRP, the “shrunken log2 fold change” value was 0.221.
Regarding RRIRNRPPRLPRPRPRPAWAPRP, the “shrunken log2 fold change” value is -0.0271.
In the case of RRIRRRPPRLPRPRPRPIVAPRP, the “shrunken log2 fold change” value was 0.174.
As to RRIRIRPPRLPRPRPRPTVQPRP, the “shrunken log2 fold change” value is -0.146.
On to RRIRARPPRLPRPRPRPQEDPRP, for which the “shrunken log2 fold change” value is 0.124.
Turning to RRIRERPPRLPRPRPRPTVFPRP, the “shrunken log2 fold change” value is 0.0505.
For RRIRQRPPRLPRPRPRPRKMPRP, the “shrunken log2 fold change” value was -0.0294.
Regarding RRIRSRPPRLPRPRPRPLKRPRP, the “shrunken log2 fold change” value worked out at 0.026.
The value for RRIRIRPPRLPRPRPRPRNNPRP was -0.355; that for RRIRRRPPRLPRPRPRPFKCPRP was -0.135; that for RRIRMRPPRLPRPRPRPYCNPRP was -0.189.
As for RRIRLRPPRLPRPRPRPPTQPRP, the “shrunken log2 fold change” value amounted to 0.376.
RRIRRRPPRLPRPRPRPEKTPRP: the “shrunken log2 fold change” value came out at 0.00726.
As for RRIRDRPPRLPRPRPRPDEYPRP, the “shrunken log2 fold change” value worked out at 0.436.
In the case of RRIRDRPPRLPRPRPRPTKKPRP it was -0.0587; in that of RRIRHRPPRLPRPRPRPYYSPRP, -0.191; in that of RRIRGRPPRLPRPRPRPTDVPRP, 0.307.
Turning to RRIRSRPPRLPRPRPRPVGKPRP, the “shrunken log2 fold change” value was -0.0806.
The value for RRIRNRPPRLPRPRPRPVGMPRP was 0.23; that for RRIRLRPPRLPRPRPRPLTSPRP was -0.179; that for RRIRARPPRLPRPRPRPASMPRP was 0.301.
The value for RRIRSRPPRLPRPRPRPRAEPRP was 0.492.
RRIRQRPPRLPRPRPRPQTEPRP: the “shrunken log2 fold change” value was -0.128.
Turning to RRIRHRPPRLPRPRPRPYCDPRP, the “shrunken log2 fold change” value is -0.313.
In the case of RRIRFRPPRLPRPRPRPDIKPRP, the “shrunken log2 fold change” value was -0.602.
Turning to RRIRYRPPRLPRPRPRPSWCPRP, the “shrunken log2 fold change” value is -0.0502.
On to RRIRPRPPRLPRPRPRPSEFPRP, for which the “shrunken log2 fold change” value is -0.0966.
RRIRIRPPRLPRPRPRPWYHPRP: the “shrunken log2 fold change” value was -0.351.
Consider RRIRSRPPRLPRPRPRPPQWPRP, for which the “shrunken log2 fold change” value stood at 0.504.
Regarding RRIRVRPPRLPRPRPRPSSDPRP, the “shrunken log2 fold change” value was -0.131.
With RRIRFRPPRLPRPRPRPHTKPRP, the “shrunken log2 fold change” value was -0.0159.
The value for RRIRPRPPRLPRPRPRPADGPRP was 0.297; that for RRIRMRPPRLPRPRPRPDAPPRP was 3.16.
Consider RRIRWRPPRLPRPRPRPFQAPRP, for which the “shrunken log2 fold change” value was -0.222.
Turning to RRIRARPPRLPRPRPRPLYGPRP, the “shrunken log2 fold change” value is -0.203.
In the case of RRIRERPPRLPRPRPRPPPPPRP, the “shrunken log2 fold change” value was found to be 0.646.
Regarding RRIRYRPPRLPRPRPRPQKSPRP, the “shrunken log2 fold change” value was -0.208.
On to RRIRARPPRLPRPRPRPEAAPRP, for which the “shrunken log2 fold change” value worked out at 1.78.
The value for RRIRWRPPRLPRPRPRPTNRPRP was -0.018.
Take RRIRRRPPRLPRPRPRPSHFPRP: the “shrunken log2 fold change” value is -0.262.
RRIRRRPPRLPRPRPRPCYSPRP: the “shrunken log2 fold change” value is -0.00167.
With RRIRKRPPRLPRPRPRPCWTPRP, the “shrunken log2 fold change” value is -0.0905.
Turning to RRIRTRPPRLPRPRPRPRSDPRP, the “shrunken log2 fold change” value worked out at 0.0841.
For the sequence RRIRDRPPRLPRPRPRPEHMPRP, the “shrunken log2 fold change” value amounted to 0.05.
In the case of RRIRSRPPRLPRPRPRPNWNPRP, the “shrunken log2 fold change” value is -0.453.
For the sequence RRIRQRPPRLPRPRPRPVIMPRP, the “shrunken log2 fold change” value was -0.348.
Turning to RRIRVRPPRLPRPRPRPWQKPRP, the “shrunken log2 fold change” value stood at 0.015.
As to RRIRYRPPRLPRPRPRPEPGPRP, the “shrunken log2 fold change” value stood at 0.215.
For RRIRVRPPRLPRPRPRPLCRPRP, the “shrunken log2 fold change” value was -0.149.
In the case of RRIRDRPPRLPRPRPRPQVEPRP it was 0.0699.
Turning to RRIRERPPRLPRPRPRPRRRPRP, the “shrunken log2 fold change” value was 0.261.
Turning to RRIRFRPPRLPRPRPRPLFEPRP, the “shrunken log2 fold change” value is -0.0359.
For the sequence RRIRCRPPRLPRPRPRPVWYPRP, the “shrunken log2 fold change” value was -0.184.
Turning to RRIRLRPPRLPRPRPRPCQLPRP, the “shrunken log2 fold change” value is -0.8.
For RRIRNRPPRLPRPRPRPFEPPRP, the “shrunken log2 fold change” value is -0.181.
As for RRIRERPPRLPRPRPRPRHVPRP, the “shrunken log2 fold change” value was determined as 0.0784.
The value for RRIRCRPPRLPRPRPRPWSAPRP was -0.308.
In the case of RRIRMRPPRLPRPRPRPNKNPRP it was 0.152.
Take RRIRWRPPRLPRPRPRPVHMPRP: the “shrunken log2 fold change” value is -0.0785.
Take RRIRGRPPRLPRPRPRPWYKPRP: the “shrunken log2 fold change” value was -0.015.
Take RRIRMRPPRLPRPRPRPQTFPRP: the “shrunken log2 fold change” value was -0.0186.
The value for RRIRLRPPRLPRPRPRPYMNPRP was -1.06.
On to RRIRMRPPRLPRPRPRPGDGPRP, for which the “shrunken log2 fold change” value came out at 0.864.
On to RRIRWRPPRLPRPRPRPHCLPRP, for which the “shrunken log2 fold change” value came out at 0.0644.
Take RRIRNRPPRLPRPRPRPMEVPRP: the “shrunken log2 fold change” value is -0.052.
On to RRIRIRPPRLPRPRPRPKKNPRP, for which the “shrunken log2 fold change” value was -0.249.
RRIRPRPPRLPRPRPRPTPHPRP: the “shrunken log2 fold change” value was found to be 0.373.
Regarding RRIRKRPPRLPRPRPRPAWAPRP, the “shrunken log2 fold change” value was found to be 0.577.
Regarding RRIRYRPPRLPRPRPRPAREPRP, the “shrunken log2 fold change” value was found to be 0.00627.
